Test results: patent US6524826B1, “Polynucleotides encoding cortistatin polypeptides” (Human Genome Sciences, Inc., priority 1996, dated 2003)

Assays:
CA1 neurons = assay: Population Spike (PS) amplitudes in CA1 neurons in vivo; conditions: microiontophoretic application of 1 mg ml^−1
Excerpt: (§1) For example, one can measure Cortistatin activity by manually depolarizing a CA1 neuron to about −65 mV (resting potential at about −70 mV) to elicit action potential firing. […] One can measure Population Spike (PS) amplitudes in CA1 neurons in vivo, by generating stimulus response curves and relating the PS amplitude monotonically to stimulus intensity tested at three response levels: threshold, half-maximal, and maximal. […] Another assay for polypeptides having Cortistatin activity is the effect of intracerebroventricular administration to male Sprague—Dawley rats, anesthetized with halothane, of the polypeptide in question on the sleep—wake cycle of the rat. An active polypeptide would increase the period of slow wave sleep and decrease REM sleep.

CA1 neuron = assay: action potential firing of a manually depolarized CA1 neuron; type: cell-based; conditions: superfusion by 1 μM; CA1 neuron depolarized to about −65 mV
Excerpt: as §1

B1: Human Cortistatin: Human Cortistatin polypeptide, brain neuropeptide; mature protein amino acid residues about 1 to about 86 in SEQ ID NO:2 (protein)
chain: MPLSPGLLLLLLSGATATAALPLEGGPTGRDSEHMQEAAGIRKSSLLTFLAWWFEWTSQASAGPLIGEEAREVARRQEGAPPQQSA
modifications: Human Cortistatin
In the case of B1, the “PS amplitudes in CA1” value (CA1 neurons) is reported as “significantly decrease PS amplitudes” and the action potential discharge (CA1 neuron) is reported as “abolish the action potential discharge”.
